In the nanobody polyreactivity screen of Harvey et al. (2022):

Experiment: yeast display, Sf9 membrane polyspecificity reagent, FACS + sequencing; frameworks hold sequencing errors
In short: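 After 36–48 hours of galactose induction, yeast (Saccharomyces cerevisiae BJ5465) displaying a synthetic nanobody library were stained at 4 °C for 1 hour with 10% biotinylated, detergent-solubilized Sf9 membrane reagent. Streptavidin microbeads enriched the stained cells before FACS sorting into low and high (top ~1%) gates on anti-HA and streptavidin fluorescence. Each clone's polyreactivity label reflects its gate of origin.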

Sequence	polyreactivity (PSR sort gate)
QVQHVESWRGLVQAGGSLRLSCAASGSTNYPNAMGWSRQAPGKERELVPAITSGGSTYYADSVKGRFTISRDNAKNTVYLPMNSLKPEDTAVYYCAAQRRYHQDTTIGPGNYYYWGQGTQVTVSS	low polyreactivity
QVQHVESWRGLVQAGGSLRLSCDASGSIIQIYAMGWYRQAPGKVRELVASITWSGGSPYYADSVKGRFTISRDNAKNTVYLQMNSLKPEDTAVFYCATDKLYGRTVRMDYWGQGTQVTVSS	low polyreactivity
QVQIEDSGGGLVQAGGSLRLSCAASGSTLRGYAMGWYRHAPGKERELVAAISKNGGSTYYADSVKGRFTISRDKAKYTVYLQMNSLKPEDTAVYYCAAVGYYTKRRFGYWGQGTQVTVSS	high polyreactivity
QVQIEESGGALVQEGGSLRLSRAASGRTFYYYAMGWYRQAPGKERELVAGIDFSSGSTYYADSVKGRFTISRDNAKNTVYLQMNSLKPEDTAVYYCAAKWHVRGRGARYRYDYDYWGQGTQVTVSS	low polyreactivity
QVQIVDSGGGLVQAGGRLRLSCAPSGITFVYYAMGWYRQAPGKEREFVASITSNGVSTYYADSVKGRYTISRDNAMNTVYLQMNSLKPEDTAVYYCAADGTYRNYWYDYWGQGTQVTVSS	low polyreactivity
QVQIVDSGGGLVQAGGSLRLSCAASGRNFGYYAMGWYRQAPGKERELVAAISYSGGSTYYADSVKGRFTISRDMAKNTVYCQMNSLKPEDTAVYYCAAPGRWPQRYGYWGLGTQVTVSS	high polyreactivity
QVQIVDSGGGLVQAGGSLRLTCAASAITFSTNALGWNRQAPGKERELVAAITSVTSTYYADSVKGRFTISRDNAKNTVYLLMKSLKTEYTAVYYWAARLSRWPYFYEYNYWGQGTEVTVSS	low polyreactivity
QVQIVESCGGLVQAGGSLRLICAATGSIFLRNTMGWYRQAPAKQRELVASIDWSGGITYYADSVKGRFTISRDNAKNTVYLQMNSLKQEDTAVYFCNAVFLYPFNVPTMEYWGQGTQVTVSS	low polyreactivity
QVQIVESGAGLVQAGGSLRLSCAASGIIFPRYAMGWYRQAPGKERELVAAITIGGRTNYGDSVKGRFTISRDNGKNTFYLQMKSLKPEDTAVYYCAAQTFVPYSEYDYWGQGTQVTVSS	low polyreactivity
QVQIVESGGCLVQAGGSLRLSCAASGRTFWYYTMGWYRQAPGKEREFVAAISYSAGNTYYADSVKGRFTISRDNAKNTVYLQMNSLKPEDTAVNYCAVQRGYRSNAYDYWGQGTQVTVSS	high polyreactivity
QVQIVESGGCLVQAGGSLRLSWAASGGIFSTNAMGWYRQAPGKERELVAAISRRGGSTYYADSVKGRFTISRDNAKNTGYLQMNSLKPEDTAVYYCNKYLRLFSYGRGYDYWGQGTQVTVSS	high polyreactivity
QVQIVESGGGLFQAGGSLRLSCAASGGIFDFYAMGWYRPATGKEWELVAAITRSGSSTFYADSVKGRFTISRDNAKNTVYLQMNILKPEDTAVYYCAAPYSYFAVYYGYIVEYDYWGQGTQVTVSS	low polyreactivity
QVQIVESGGGLFQAGGSLRLSSAASGNTFDKYAMGWYRQAPGKEREMVAAISSGGRTYYADSVKGRFTISRDNAKNTVYLQMNSLKPEDTAVYYCGKGSAGRGMDSWGQGTQVTVSS	low polyreactivity
QVQIVESGGGLIQEGGSLRLSCAASGSTFYYYAMGWYRPAPGKERELVAAIDRDDRTNYADSVKGRFTSSRDNAQNTVYLQMTSLKPEDTAVYYCAAVEIYEYDYWGQGTQVTVSS	low polyreactivity
QVQIVESGGGLLQAGGSLRLSCAASGGTFPVYAMVWYRQAPGKERELVAAISYSGVTTYYADSVKGRFTISRDNAKNTVYLQINSLKPDDTAVFYCNADWRRWYIFSYDYWGQGTQVTVSS	low polyreactivity
QVQIVESGGGLLQAGGSLRLSCAASGLTFGSYAMGWYRQAPGKERELVAAISRSGGSTYYADSVKGRFTISRDNAKNTVYLQMNSLKPEDTAVYYCNAVNPYYAPTERRVGFDYWGQGTQVTVSS	high polyreactivity

Sequence	polyreactivity (PSR sort gate)
QVQIVESGGGLVQAAVSLPISCPASGSIFGSYAMGWYRQAPGKERELVAAISKSGGSTYYADSVKGRFTISRDYAKNTVNLQMNSLKPEDTEVYYCAARAFLYAYRAYDYWGQGTQVNVSS	high polyreactivity
QVQIVESGGGLVQAGCSLRLSCAASGFIFRRNAMGWYRQAPGKERELVATIRASGGRTYYADSEKGRFTISRDNAKNTVYLQMNSMKPEDTAVYYCAADTYRDVRDPYYYWGQGTQVTVSS	high polyreactivity
QVQIVESGGGLVQAGGSHRLSCAASGSTFASNTKGWYTQAPGKERELVATITQSGGTRYYADSVKGRFTISRDNAKYTVYFQMNSLKPEDTAVYDCATDVGYFYTVVGGYDYWGQGTQVTVSA	low polyreactivity
QVQIVESGGGLVQAGGSIRLSCAASGYTFVIYAMGSYRPAPGKERELVAAITTIGGRTYYADSVKGRFTISRDNAKNTVYLQMNSLKPEDTAVYYCAADIRSNRLYDGGYWGQGTQVTVSS	low polyreactivity
QVQIVESGGGLVQAGGSLPLSCAASGSIFDYYVMGWYRQAPGKERELVAAINWSGDGTNYADSVKGRFTISRDNAKNTVYLQMNSLKPEDTAVYYCNADWTSDGFGTRLDYWGQGTQVTVSS	low polyreactivity
QVQIVESGGGLVQAGGSLRFSCAASGRIFIYNAMGWYRQAPGKERELVAAISRTGGRTYYADSVKGRFTISRDISKNTVYLQMNSLKPEDTAVYYCAARNRGQYYSWGQGTQLTVSS	high polyreactivity
QVQIVESGGGLVQAGGSLRISCAASGFIFAYNSMGWNRQAPGKERELVAAISRSGGSTRYADSVKGRFPISRDNAKNTVFLQMNSLKPEDTAVYYCAAEYLGSYGYYEYDFWGQGTQVTVSS	high polyreactivity
QVQIVESGGGLVQAGGSLRISCAASGIIFYAYAMGWSRQAPGKEREFVAAINNSGGRTYYADSVKGRFTISRDNAKNTVYLQMNSLKPEDTAVYYCAVYSYYRRTYRREMDYWGQGTQVTVSS	high polyreactivity
QVQIVESGGGLVQAGGSLRLICAASGFTFTYNAMGWYRQAPWKERELVADIDSDGSTTYADSVKGRFTISRDNAKNTVYLQMNSLKPEDTAVYYCAADYWDYSVWRWYEYWGQGTQVTVSS	high polyreactivity
QVQIVESGGGLVQAGGSLRLICAASGRIFRYYVMGWYRQAPGKERELVATITSGGSTNYADSVKGRFTISRDNAKNTVYLQMNSLKPEDTAVYYCNRDRYPYYYAYNFWGQGTQVTVSS	low polyreactivity
QVQIVESGGGLVQAGGSLRLSCAACGRIFTWNVMGWYRQAPGKEREFVAAITYSGGRTRYADSVKGRFTISRDIAKNTVYLQMNSLKPEDTAFYYCAATSRGTDYWGQGTQVTVSS	high polyreactivity
QVQIVESGGGLVQAGGSLRLSCAASGFIFRYNVMGWYRQAPAKERELVAANSSSGSRTYYADSVKGRFTISRDNAKNTVYLQMNSLKPEDTAVYYCATQSWVRYGQPEFDYWGHGTQVTVSS	high polyreactivity
QVQIVESGGGLVQAGGSLRLSCAASGFIFTAYAMGWYRPGPGKERELDAAISSSGTRTYYADSVKGRFTISRDYAKNTVYLQMNCLKPEDTAVYYCNKLYLVWNFYSGYDYSGQGTQVTVSS	high polyreactivity
QVQIVESGGGLVQAGGSLRLSCAASGFTFRYYAMGWYRQAPGQERELVAAISKSGGSTYYADSVKGRFTISRDNAKNTVDLQMNSLKPEDTAVYYCAADYAHIGYDYDYWGQGTQVTVSS	high polyreactivity
QVQIVESGGGLVQAGGSLRLSCAASGFTFWRNAMVWYRQAPGKERELVAAINWSGGSTYYADSVKGRFTISRDNAKNTVYLQMNSLKPEDTAVYYCAADLSSRGISQDDYWGQGTQVTVSS	high polyreactivity
